# Measured values from patent US20250035634A1, “A METHOD FOR DETECTING CLUSTERING OF RAS PROTEIN” (Nanyang Technological University, priority 2021, published 2025).
# B1: EGF: Epidermal Growth Factor used to activate wild-type K-Ras in cells (protein, UniProt P01133 23-1207, looked up)
# Pro-epidermal growth factor: PQHWSCPEGTLAGNGNSTCVGPAPFLIFSHGNSIFRIDTEGTNYEQLVVDAGVSVIMDFHYNEKRIYWVDLERQLLQRVFLNGSRQERVCNIEKNVSGMAINWINEEVIWSNQQEGIITVTDMKGNNSHILLSALKYPANVAVDPVERFIFWSSEVAGSLYRADLDGVGVKALLETSEKITAVSLDVLDKRLFWIQYNREGSNSLICSCDYDGGSVHISKHPTQHNLFAMSLFGDRIFYSTWKMKTIWIANKHTGKDMVRINLHSSFVPLGELKVVHPLAQPKAEDDTWEPEQKLCKLRKGNCSSTVCGQDLQSHLCMCAEGYALSRDRKYCEDVNECAFWNHGCTLGCKNTPGSYYCTCPVGFVLLPDGKRCHQLVSCPRNVSECSHDCVLTSEGPLCFCPEGSVLERDGKTCSGCSSPDNGGCSQLCVPLSPVSWECDCFPGYDLQLDEKSCAASGPQPFLLFANSQDIRHMHFDGTDYGTLLSQQMGMVYALDHDPVENKIYFAHTALKWIERANMDGSQRERLIEEGVDVPEGLAVDWIGRRFYWTDRGKSLIGRSDLNGKRSKIITKENISQPRGIAVHPMAKRLFWTDTGINPRIESSSLQGLGRLVIASSDLIWPSGITIDFLTDKLYWCDAKQSVIEMANLDGSKRRRLTQNDVGHPFAVAVFEDYVWFSDWAMPSVMRVNKRTGKDRVRLQGSMLKPSSLVVVHPLAKPGADPCLYQNGGCEHICKKRLGTAWCSCREGFMKASDGKTCLALDGHQLLAGGEVDLKNQVTPLDILSKTRVSEDNITESQHMLVAEIMVSDQDDCAPVGCSMYARCISEGEDATCQCLKGFAGDGKLCSDIDECEMGVPVCPPASSKCINTEGGYVCRCSEGYQGDGIHCLDIDECQLGEHSCGENASCTNTEGGYTCMCAGRLSEPGLICPDSTPPPHLREDDHHYSVRNSDSECPLSHDGYCLHDGVCMYIEALDKYACNCVVGYIGERCQYRDLKWWELRHAGHGQQQKVIVVAVCVVVLVMLLLLSLWGAHYYRTQKLLSKNPKNPYEESSRDVRSRRPADTEDGMSSCPQPWFVVIKEHQDLKNGGQPVAGEDGQAADGSMQPTSWRQEPQLCGMGTEQGCWIPVSSDKGSCPQVMERSFHMPSYGTQTLEGGVEKPHSLLSANPLWQQRALDPPHQMELTQ
# modifications: Pro-epidermal growth factor
# Tested on: KRasWT
# Assay: nanobar-guided KRasWT clustering upon EGF activation in U2OS cells
# Type: cell-based
# Details: EGF 100 ng/ml, 1 hr, mean±s.e.m.
# Protocol: Cell imaging is performed with laser scanning confocal microscopy (Zeiss LSM 800 with Airyscan) and a Plan-Apochromat 100×/1.4 oil objective. EGFP is excited at 488 nm and detected at 490-570 nm. RFP is excited at 561 nm and detected at 570-645 nm. Images were taken with a resolution of 512×512 pixels, 16-bit and 124 nm pixel size. A scanning speed of 20 s/image and an averaging mode of 4 times/line can be applied. During imaging, the cells are maintained in live cell imaging solution (Thermo Fisher) at 37° C. in an on-stage incubator. […] The images are conducted with a single snap shot for display of Ras variants and the quantification. For the imaging of co-expressed K-Ras variants and CRaf-RBD, z-stack images can be taken and averaged for display and the intensity profiles. […]
# To quantify the nanobar-guided clustering of Ras variants, the fluorescence intensity ratio at the nanobar end to the flat sidewall (i.e. Enrichment Index, EI) is calculated. […] Next, the nanobars covered by the cell to be analyzed are identified by a custom-written MATLAB (MathWorks) code. […] To minimize the possible human bias, all the parameters for the calculation and the sorting criteria for data validation have been kept consistent throughout the entire quantification process. After the data validation, the remaining data points are ready for plotting. […]
molecule,measurement,value
B1,Enrichment Index (EI) of KRasWT,1.89 ± 0.042
